Blank lines part the entries; values can stand above or below the binder they belong to.
Key:
Test in all cases: ELISA
mOX40-Fc = biological target: T1, mOX40-Fc (mouse, UniProt P47741 20-211)
T1 sequence (looked up): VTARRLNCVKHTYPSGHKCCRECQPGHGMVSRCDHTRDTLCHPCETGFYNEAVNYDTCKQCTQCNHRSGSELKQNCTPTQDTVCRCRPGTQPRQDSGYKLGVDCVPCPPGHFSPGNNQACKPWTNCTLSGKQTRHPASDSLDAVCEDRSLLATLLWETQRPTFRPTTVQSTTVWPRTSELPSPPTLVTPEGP

m4-1BB-Fc = biological target: T2, m4-1BB-Fc (mouse, UniProt P20334 24-187)
T2 sequence (looked up): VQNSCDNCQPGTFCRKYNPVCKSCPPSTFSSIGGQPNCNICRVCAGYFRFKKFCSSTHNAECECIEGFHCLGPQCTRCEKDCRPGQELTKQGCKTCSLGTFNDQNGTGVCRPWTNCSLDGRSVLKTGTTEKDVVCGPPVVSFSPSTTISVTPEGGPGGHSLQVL

mCD27-Fc = biological target: T3, mCD27-Fc (mouse, UniProt P41272 24-182)
T3 sequence (looked up): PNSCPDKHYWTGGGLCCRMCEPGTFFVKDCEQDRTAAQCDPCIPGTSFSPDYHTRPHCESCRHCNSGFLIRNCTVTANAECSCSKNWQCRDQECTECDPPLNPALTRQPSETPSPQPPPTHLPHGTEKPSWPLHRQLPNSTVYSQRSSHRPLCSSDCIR

mCD40-Fc = biological target: T4, mCD40-Fc (mouse, UniProt P27512 20-193)
T4 sequence (looked up): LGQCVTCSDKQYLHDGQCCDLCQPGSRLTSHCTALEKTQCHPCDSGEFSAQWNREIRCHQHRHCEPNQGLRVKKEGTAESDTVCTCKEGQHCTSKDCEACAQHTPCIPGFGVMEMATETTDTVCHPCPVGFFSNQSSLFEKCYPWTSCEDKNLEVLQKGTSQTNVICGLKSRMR

CD27-huFc = biological target: T5, CD27-huFc (UniProt P26842 20-191)
T5 sequence (looked up): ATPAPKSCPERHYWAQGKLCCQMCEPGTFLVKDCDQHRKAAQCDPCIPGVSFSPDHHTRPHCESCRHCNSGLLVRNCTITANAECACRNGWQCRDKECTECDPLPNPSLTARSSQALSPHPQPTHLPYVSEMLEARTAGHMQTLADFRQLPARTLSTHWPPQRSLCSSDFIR

OX40-moFc = biological target: T6, OX40-moFc (UniProt P43489 29-214)
T6 sequence (looked up): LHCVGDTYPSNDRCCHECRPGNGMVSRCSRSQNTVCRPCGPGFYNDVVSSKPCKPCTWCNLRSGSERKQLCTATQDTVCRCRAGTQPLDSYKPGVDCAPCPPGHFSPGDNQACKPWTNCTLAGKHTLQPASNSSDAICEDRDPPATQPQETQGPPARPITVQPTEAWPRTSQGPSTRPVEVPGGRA

CD27-moFc = biological target: T7, CD27-moFc (UniProt P26842 20-191)
T7 sequence (looked up): T5 sequence (looked up)

EC50 (mOX40-Fc): 55.2 nM
EC50 (m4-1BB-Fc): 9.2 nM
B1: msc4-1BBL-mscOX40L-mFc (Fc fusion)
chain 1: RTEPRPALTITTSPNLGTRENNADQVTPVSHIGCPNTTQQGSPVFAKLLAKNQASLCNTTLNWHSQDGAGSSYLSQGLRYEEDKKELVVDSPGLYYVFLELKLSPTFTNTGHKVQGWVSLVLQAKPQVDDFDNLALTVELFPCSMENKLVDRSWSQLLLLKAGHRLSVGLRAYLHGAQDAYRDWELSYPNTTSFGLFLVKPDNPWEGGGGSGGGGSGGGGSGGGGSRTEPRPALTITTSPNLGTRENNADQVTPVSHIGCPNTTQQGSPVFAKLLAKNQASLCNTTLNWHSQDGAGSSYLSQGLRYEEDKKELVVDSPGLYYVFLELKLSPTFTNTGHKVQGWVSLVLQAKPQVDDFDNLALTVELFPCSMENKLVDRSWSQLLLLKAGHRLSVGLRAYLHGAQDAYRDWELSYPNTTSFGLFLVKPDNPWEGGGGSGGGGSGGGGSGGGGSRTEPRPALTITTSPNLGTRENNADQVTPVSHIGCPNTTQQGSPVFAKLLAKNQASLCNTTLNWHSQDGAGSSYLSQGLRYEEDKKELVVDSPGLYYVFLELKLSPTFTNTGHKVQGWVSLVLQAKPQVDDFDNLALTVELFPCSMENKLVDRSWSQLLLLKAGHRLSVGLRAYLHGAQDAYRDWELSYPNTTSFGLFLVKPDNPWE
chain 2: SSSPAKDPPIQRLRGAVTRCEDGQLFISSYKNEYQTMEVQNNSVVIKCDGLYIIYLKGSFFQEVKIDLHFREDHNPISIPMLNDGRRIVFTVVASLAFKDKVYLTVNAPDTLCEHLQINDGELIVVQLTPGYCAPEGSYHSTVNQVPLGGGGSGGGGSGGGGSSSSPAKDPPIQRLRGAVTRCEDGQLFISSYKNEYQTMEVQNNSVVIKCDGLYIIYLKGSFFQEVKIDLHFREDHNPISIPMLNDGRRIVFTVVASLAFKDKVYLTVNAPDTLCEHLQINDGELIVVQLTPGYCAPEGSYHSTVNQVPLGGGGSGGGGSGGGGSSSSPAKDPPIQRLRGAVTRCEDGQLFISSYKNEYQTMEVQNNSVVIKCDGLYIIYLKGSFFQEVKIDLHFREDHNPISIPMLNDGRRIVFTVVASLAFKDKVYLTVNAPDTLCEHLQINDGELIVVQLTPGYCAPEGSYHSTVNQVPL

EC50 (mCD27-Fc): 0.4 nM
EC50 (mCD40-Fc): 1.4 nM
B2: mscCD40L-mscCD27L-mFc (Fc fusion)
chain 1: HRRLDKVEEEVNLHEDFVFIKKLKRCNKGEGSLSLLNCEEMRRQFEDLVKDITLNKEEKKENSFEMQRGDEDPQIAAHVVSEANSNAASVLQWAKKGYYTMKSNLVMLENGKQLTVKREGLYYVYTQVTFCSNREPSSQRPFIVGLWLKPSSGSERILLKAANTHSSSQLCEQQSVHLGGVFELQAGASVFVNVTEASQVIHRVGFSSFGLLKLGGHRRLDKVEEEVNLHEDFVFIKKLKRCNKGEGSLSLLNCEEMRRQFEDLVKDITLNKEEKKENSFEMQRGDEDPQIAAHVVSEANSNAASVLQWAKKGYYTMKSNLVMLENGKQLTVKREGLYYVYTQVTFCSNREPSSQRPFIVGLWLKPSSGSERILLKAANTHSSSQLCEQQSVHLGGVFELQAGASVFVNVTEASQVIHRVGFSSFGLLKLGGHRRLDKVEEEVNLHEDFVFIKKLKRCNKGEGSLSLLNCEEMRRQFEDLVKDITLNKEEKKENSFEMQRGDEDPQIAAHVVSEANSNAASVLQWAKKGYYTMKSNLVMLENGKQLTVKREGLYYVYTQVTFCSNREPSSQRPFIVGLWLKPSSGSERILLKAANTHSSSQLCEQQSVHLGGVFELQAGASVFVNVTEASQVIHRVGFSSFGLLKL
chain 2: SKQQQRLLEHPEPHTAELQLNLTVPRKDPTLRWGAGPALGRSFTHGPELEEGHLRIHQDGLYRLHIQVTLANCSSPGSTLQHRATLAVGICSPAAHGISLLRGRFGQDCTVALQRLTYLVHGDVLCTNLTLPLLPSRNADETFFGVQWICPGGSKQQQRLLEHPEPHTAELQLNLTVPRKDPTLRWGAGPALGRSFTHGPELEEGHLRIHQDGLYRLHIQVTLANCSSPGSTLQHRATLAVGICSPAAHGISLLRGRFGQDCTVALQRLTYLVHGDVLCTNLTLPLLPSRNADETFFGVQWICPGGSKQQQRLLEHPEPHTAELQLNLTVPRKDPTLRWGAGPALGRSFTHGPELEEGHLRIHQDGLYRLHIQVTLANCSSPGSTLQHRATLAVGICSPAAHGISLLRGRFGQDCTVALQRLTYLVHGDVLCTNLTLPLLPSRNADETFFGVQWICP

EC50 (CD27-huFc): 0.3 nM
EC50 (OX40-moFc): 0.3 nM
EC50 (CD27-moFc): 0.3 nM
B3: scCD27L-scOX40L-Fc (Fc fusion, human)
chain 1: SLGWDVAELQLNHTGPQQDPRLYWQGGPALGRSFLHGPELDKGQLRIHRDGIYMVHIQVTLAICSSTTASRHHPTTLAVGICSPASRSISLLRLSFHQGCTIASQRLTPLARGDTLCTNLTGTLLPSRNTDETFFGVQWVRPGGSLGWDVAELQLNHTGPQQDPRLYWQGGPALGRSFLHGPELDKGQLRIHRDGIYMVHIQVTLAICSSTTASRHHPTTLAVGICSPASRSISLLRLSFHQGCTIASQRLTPLARGDTLCTNLTGTLLPSRNTDETFFGVQWVRPGGSLGWDVAELQLNHTGPQQDPRLYWQGGPALGRSFLHGPELDKGQLRIHRDGIYMVHIQVTLAICSSTTASRHHPTTLAVGICSPASRSISLLRLSFHQGCTIASQRLTPLARGDTLCTNLTGTLLPSRNTDETFFGVQWVRP
chain 2: QVSHRYPRIQSIKVQFTEYKKEKGFILTSQKEDEIMKVQNNSVIINCDGFYLISLKGYFSQEVNISLHYQKDEEPLFQLKKVRSVNSLMVASLTYKDKVYLNVTTDNTSLDDFHVNGGELILIHQNPGEFCVLGGGGSGGGGSGGGGSQVSHRYPRIQSIKVQFTEYKKEKGFILTSQKEDEIMKVQNNSVIINCDGFYLISLKGYFSQEVNISLHYQKDEEPLFQLKKVRSVNSLMVASLTYKDKVYLNVTTDNTSLDDFHVNGGELILIHQNPGEFCVLGGGGSGGGGSGGGGSQVSHRYPRIQSIKVQFTEYKKEKGFILTSQKEDEIMKVQNNSVIINCDGFYLISLKGYFSQEVNISLHYQKDEEPLFQLKKVRSVNSLMVASLTYKDKVYLNVTTDNTSLDDFHVNGGELILIHQNPGEFCVL

Reference: article PMC8786347 (Oncoimmunology, 2022)
